tested on: Escherichia coli TOP10; assay: shrunken log2 fold change of peptide-encoding DNA abundance (4.5 h post-induction vs induction); higher = less antimicrobial activity (less host growth inhibition); conditions: time post-induction: 4.5 h; library: site-saturation at positions 5, 18, 19, 20
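Also: peptides expressed intracellularly from a pBAD plasmid library in pooled LB shake-flask culture, induced with 0.3% L-arabinose, DNA abundance read by NGS, three biological replicates, DESeq2 with apeglm shrinkage.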

| Sequence | shrunken log2 fold change |
| --- | --- |
| RRIRWRPPRLPRPRPRPMFAPRP | 0.216 |
| RRIRIRPPRLPRPRPRPYDEPRP | -0.338 |
| RRIRERPPRLPRPRPRPFTSPRP | -0.209 |
| RRIRWRPPRLPRPRPRPLPYPRP | -0.192 |
| RRIRSRPPRLPRPRPRPVEDPRP | -0.0519 |
| RRIRVRPPRLPRPRPRPKFHPRP | 0.678 |
| RRIRVRPPRLPRPRPRPCMKPRP | -0.104 |
| RRIRTRPPRLPRPRPRPDTTPRP | -0.0469 |
| RRIRSRPPRLPRPRPRPQPFPRP | -0.0168 |
| RRIRARPPRLPRPRPRPKFQPRP | 0.328 |
| RRIRPRPPRLPRPRPRPVHAPRP | 0.441 |
| RRIRERPPRLPRPRPRPGCLPRP | -0.017 |
| RRIRTRPPRLPRPRPRPEDTPRP | -0.045 |
| RRIRYRPPRLPRPRPRPFFQPRP | -0.428 |
| RRIRFRPPRLPRPRPRPNFMPRP | -0.0155 |
| RRIRRRPPRLPRPRPRPDYPPRP | 0.0596 |
| RRIRKRPPRLPRPRPRPMNMPRP | -0.0791 |
| RRIRGRPPRLPRPRPRPTQLPRP | 1.02 |
| RRIRDRPPRLPRPRPRPGIQPRP | -0.148 |
| RRIRRRPPRLPRPRPRPYNWPRP | -0.734 |
| RRIRARPPRLPRPRPRPPVFPRP | 0.416 |
| RRIRSRPPRLPRPRPRPCVMPRP | 0.0389 |
| RRIRIRPPRLPRPRPRPELIPRP | 0.0381 |
| RRIRFRPPRLPRPRPRPPKKPRP | 0.847 |
| RRIRYRPPRLPRPRPRPPQMPRP | 0.0297 |

| Sequence | shrunken log2 fold change |
| --- | --- |
| RRIRERPPRLPRPRPRPVKMPRP | -0.0989 |
| RRIRERPPRLPRPRPRPGETPRP | 0.0954 |
| RRIRRRPPRLPRPRPRPMPGPRP | 0.243 |
| RRIRCRPPRLPRPRPRPVFAPRP | -0.224 |
| RRIRQRPPRLPRPRPRPSGCPRP | 0.0869 |
| RRIRDRPPRLPRPRPRPCDVPRP | -0.0231 |
| RRIRQRPPRLPRPRPRPCWHPRP | -0.129 |
| RRIRVRPPRLPRPRPRPDPAPRP | 0.142 |
| RRIRARPPRLPRPRPRPYQYPRP | -0.352 |
| RRIRKRPPRLPRPRPRPPMKPRP | 0.135 |
| RRIRNRPPRLPRPRPRPTSVPRP | 0.184 |
| RRIRMRPPRLPRPRPRPQCLPRP | -0.108 |
| RRIRYRPPRLPRPRPRPQDTPRP | -0.547 |
| RRIRQRPPRLPRPRPRPGNKPRP | -0.596 |
| RRIRNRPPRLPRPRPRPRSNPRP | -0.0866 |
| RRIRTRPPRLPRPRPRPSGQPRP | 0.0245 |
| RRIRLRPPRLPRPRPRPHEWPRP | -0.0141 |
| RRIRQRPPRLPRPRPRPDWLPRP | -0.102 |
| RRIRGRPPRLPRPRPRPMHAPRP | 1.66 |
| RRIRWRPPRLPRPRPRPMKVPRP | 0.138 |
| RRIRGRPPRLPRPRPRPQSEPRP | 0.273 |
| RRIRTRPPRLPRPRPRPHWWPRP | 0.203 |
| RRIRTRPPRLPRPRPRPHRNPRP | -0.677 |
| RRIRPRPPRLPRPRPRPHIWPRP | -0.3 |
| RRIRVRPPRLPRPRPRPWSRPRP | -0.273 |

| Sequence | shrunken log2 fold change |
| --- | --- |
| RRIRFRPPRLPRPRPRPFNLPRP | -0.66 |
| RRIRIRPPRLPRPRPRPLPDPRP | 0.0943 |
| RRIRERPPRLPRPRPRPFSHPRP | -0.153 |
| RRIRARPPRLPRPRPRPYSLPRP | -0.187 |
| RRIRQRPPRLPRPRPRPVFVPRP | -0.0727 |
| RRIRGRPPRLPRPRPRPSECPRP | 0.519 |
| RRIRTRPPRLPRPRPRPGHTPRP | -0.342 |
| RRIRLRPPRLPRPRPRPQCRPRP | 0.0156 |
| RRIRTRPPRLPRPRPRPKARPRP | 0.0672 |
| RRIRARPPRLPRPRPRPGFVPRP | 0.42 |
| RRIRPRPPRLPRPRPRPTFHPRP | 0.0667 |
| RRIRNRPPRLPRPRPRPEHCPRP | -0.0139 |
| RRIRPRPPRLPRPRPRPFIHPRP | -0.224 |
| RRIRCRPPRLPRPRPRPCKMPRP | 5.36 |
| RRIRQRPPRLPRPRPRPHPRPRP | 0.575 |
| RRIRVRPPRLPRPRPRPNFEPRP | 0.178 |
| RRIRYRPPRLPRPRPRPCWSPRP | -0.768 |
| RRIRFRPPRLPRPRPRPQDSPRP | -0.113 |
| RRIRRRPPRLPRPRPRPPDLPRP | 0.66 |
| RRIRFRPPRLPRPRPRPWMTPRP | 0.0687 |
| RRIRNRPPRLPRPRPRPYKFPRP | -0.286 |
| RRIRPRPPRLPRPRPRPHQKPRP | -0.0717 |
| RRIRMRPPRLPRPRPRPSAEPRP | 2.7 |
| RRIRMRPPRLPRPRPRPFFTPRP | -0.054 |
| RRIRSRPPRLPRPRPRPMIKPRP | -0.464 |
